According to US20230192875A1 (KUMHO HT, published 2023):
Residue numbers refer to the chain shown, from its start. Blank lines part the entries; values can stand above or below the binder they belong to.

Experiments:
[1] = molecular target: T1, recombinant human CD40 (R&D systems, Cat. No.: P25942) (human, UniProt P25942 21-193); assay: ELISA, coated rCD40 1.0 µg/mL, CHO culture supernatant
T1 construct: also called rCD40; human recombinant CD40
Description: Each of the humanized antibody cultures was assayed for reactivity for a recombinant antigen human CD40 (rCD40; R&D systems, Cat. No.: P25942) by ELISA. For this assay, a dilution of rCD40 at a concentration of 1.0 μg/mL in phosphate buffered saline was plated at a density of 100 μL/well into microplates and incubated at 37° C. for one hour to coat the microplates with the antigen which was then blocked by adding a 1× blocking solution (Sigma) in an amount of 200 μl per well and incubating at 37° C. for one hour.
Following one hour of incubation with 100 μL of each of the humanized anti-CD40 antibody cultures at 37° C., the microplates were washed three times with phosphate buffered saline. Treatment with the secondary antibody goat anti-human IgG F(ab′)2-HRP (Jackson Immunoresearch, Cat. No.: 109-035-006) at 37° C. for 30 min was followed by three rounds of washing with phosphate buffered saline. Then, TMB Single Solution (Life Technologies, Cat. No: 002023) was added in an amount of 100 μl per well and incubated at room temperature for 5-10 min in a dark place. Color development was stopped with 100 μL of 1.0 N sulfuric acid and absorbance at 450 nm was measured.

[2] = molecular target: T2, human CD40 expressed on Ramos cell line (ATCC CRL-1596) (human, UniProt P25942 21-277); assay: flow cytometry on Ramos cells, FITC-5C2 1.0 µg/mL, with or without preincubation with CD40L 15.0 µg/mL
T2 construct: whole, on cells; Endogenous CD40 on Ramos cells; also called CD40 on Ramos cells
Description: A solution of FITC Isomer I (Invitrogen, Cat. No.: F1906) at a concentration of 2.6 mg/mL in DMSO (Sigma-Aldrich, Cat. No.:276855) was added in an amount of 20.0 μL to each of the antibody solutions. After FITC conjugation by stirring at room temperature for 2 hours, the resulting antibody solutions were dialyzed against phosphate buffered saline to obtain FITC-labeled antibodies.
The cells were washed again with phosphate buffered saline and then subjected to fluorescent immunoassay using flow cytometry (Stratedigm, S1000EXi).

[3] = molecular target: T1, recombinant human CD40 (R&D systems, …); assay: ELISA, coated CD40 100 ng/well, hybridoma culture supernatant
Description: Human recombinant CD40 (R&D systems, Cat. No.:P25942) was plated in an amount of 100.0 ng per well into a MaxiSorp ELISA plate and reacted at 37° C. for one hour for antibody coating, followed by blocking by incubation with 200 μL of 1× blocking solution (Sigma) per well at 37° C. for one hour.

[4] = molecular target: T3, recombinant antigen human CD40L (Recombinant Human sCD40 Ligand; Peprotech, Cat. No.: 310-02) (human, UniProt P29965 113-261); assay: ELISA, antigen coated at 1.0 µg/mL, antibody at 1.0 µg/mL, anti-mouse IgG-HRP
T3 construct: Soluble recombinant CD40L; also called rCD40L; recombinant antigen CD40L
T3 chain: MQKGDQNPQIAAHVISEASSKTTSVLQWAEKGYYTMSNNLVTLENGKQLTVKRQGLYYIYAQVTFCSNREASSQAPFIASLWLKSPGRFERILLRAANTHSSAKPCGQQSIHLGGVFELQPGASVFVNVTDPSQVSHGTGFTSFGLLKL

[5] = molecular target: T4, recombinant antigen human CD40 (Sino Biological Inc., Cat. No.: 10774-H02H) (human, UniProt P25942 21-193); assay: ELISA (FIG. 2)
T4 construct: Bought antigen used in the ELISA of the chimeric antibodies
Description: A dilution of the recombinant antigen human CD40 (Sino Biological Inc., Cat. No.: 10774-H02H) at a concentration of 1.0 μg/mL in phosphate buffered saline was plated at 100 μL/well into microplates and incubated at 37° C. for one hour to coat the plates therewith. Then, a 1× blocking solution (Sigma) was added in an amount of 200 μL per well and incubated at 37° C. for one hour to block the antigen.
The dilutions were added in an amount of 100 μL/well, incubated at 37° C. for one hour and washed three times with phosphate buffered saline. The antibodies were treated with the secondary antibody goat anti-human IgG F(ab′)2-HRP (Jackson Immunoresearch, Cat. No.: 109-035-006) at 37° C. for 30 min and washed three times with phosphate buffered saline. After reaction with 100 μL of TMB Single Solution (Life Technologies, Cat. No: 002023) per well at room temperature for 4-10 min in a dark place, the color development was stopped with 100 μL of 1.0 N sulfuric acid and then absorbance at 450 nm was measured.

T4 sequence (P25942 21-193 limits assumed): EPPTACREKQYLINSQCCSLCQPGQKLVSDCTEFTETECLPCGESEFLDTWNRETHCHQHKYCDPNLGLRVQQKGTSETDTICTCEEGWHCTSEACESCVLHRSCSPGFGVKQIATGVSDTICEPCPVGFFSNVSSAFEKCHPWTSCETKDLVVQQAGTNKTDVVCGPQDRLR
T1 sequence (P25942 21-193 limits assumed, one chain of several): as the sequence (P25942 21-193 limits assumed) above
T2 sequence (P25942 21-277): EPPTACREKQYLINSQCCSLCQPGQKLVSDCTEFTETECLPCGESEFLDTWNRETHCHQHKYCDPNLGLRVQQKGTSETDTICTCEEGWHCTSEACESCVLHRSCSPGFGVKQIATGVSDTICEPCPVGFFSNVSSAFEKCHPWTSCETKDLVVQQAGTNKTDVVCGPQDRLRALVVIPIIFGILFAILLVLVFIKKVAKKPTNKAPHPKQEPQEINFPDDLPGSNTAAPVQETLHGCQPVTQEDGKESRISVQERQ

B1: humanized 5C2 antibody VH5VL1 (a combination of heavy chain VH5 and light chain VL1) (antibody, human IgG2, V domains shown)
VH: EVQLVQSGAEVKKPGESVKISCKASGYGFTNYLIEWVRQMPGKGLEWIGVINPGYGGVNYNEKFKGQATLSADKSISTAYLQLSSLKASDTAVYFCARGGSGFAFWGQGTLVTVSS
VL: DIQMTQSPSSLSASVGDRVTITCRASQDISNHLNWYQQKPGKAVKLLISSTSRLHSGVPSRFSGSGSGTDYTLTISSLQPEDFATYFCQQGNTLPWTFGQGTKVEIK
notes: Tested as CHO culture supernatant
binding result [1]: binds

B2: humanized 5C2 antibody VH1VL1 (a combination of heavy chain VH1 and light chain VL1) (antibody, human IgG2, V domains shown)
VH: QVQLVQSGAEVKKPGASVKVSCKASGYGFTNYLIEWVRQAPGQGLEWIGVINPGYGGVNYNEKFKGRATLTADKSISTAYMELSRLRSDDTAVYFCARGGSGFAFWGQGTLVTVSS
VL: B1 VL
notes: as for B1
binding result [1]: binds

B3: humanized 5C2 antibody VH5VL2 (a combination of heavy chain VH5 and light chain VL2) (antibody, human IgG2, V domains shown)
VH: B1 VH
VL: EIVMTQSPATLSVSPGERATLSCRASQDISNHLNWYQQKPGQAVRLLISSTSRLHSGIPARFSGSGSGTEYTLTISSLQSEDFAVYFCQQGNTLPWTFGQGTKVEIK
notes: as for B1
binding result [1]: binds

B4: humanized 5C2 antibody VH2VL1 (a combination of heavy chain VH2 and light chain VL1) (antibody, human IgG2, V domains shown)
VH: B2 VH with A68V
VL: B1 VL
notes: as for B1
binding result [1]: binds

B5: humanized 5C2 antibody VH3VL1 (a combination of heavy chain VH3 and light chain VL1) (antibody, human IgG2, V domains shown)
VH: B2 VH with A16S, I76T, R85S, D89E
VL: B1 VL
notes: as for B1
binding result [1]: binds

B7: humanized 5C2 antibody VH1VL2 (a combination of heavy chain VH1 and light chain VL2) (antibody, human IgG2, V domains shown)
VH: B2 VH
VL: B3 VL
notes: as for B1
binding result [1]: binds

B9: humanized 5C2 antibody VH3VL2 (a combination of heavy chain VH3 and light chain VL2) (antibody, human IgG2, V domains shown)
VH: B2 VH with A16S, I76T, R85S, D89E
VL: B3 VL
notes: as for B1
binding result [1]: binds

B11: anti-CD40 5C2 chimeric antibody comprising human IgG4 constant region (antibody)
heavy: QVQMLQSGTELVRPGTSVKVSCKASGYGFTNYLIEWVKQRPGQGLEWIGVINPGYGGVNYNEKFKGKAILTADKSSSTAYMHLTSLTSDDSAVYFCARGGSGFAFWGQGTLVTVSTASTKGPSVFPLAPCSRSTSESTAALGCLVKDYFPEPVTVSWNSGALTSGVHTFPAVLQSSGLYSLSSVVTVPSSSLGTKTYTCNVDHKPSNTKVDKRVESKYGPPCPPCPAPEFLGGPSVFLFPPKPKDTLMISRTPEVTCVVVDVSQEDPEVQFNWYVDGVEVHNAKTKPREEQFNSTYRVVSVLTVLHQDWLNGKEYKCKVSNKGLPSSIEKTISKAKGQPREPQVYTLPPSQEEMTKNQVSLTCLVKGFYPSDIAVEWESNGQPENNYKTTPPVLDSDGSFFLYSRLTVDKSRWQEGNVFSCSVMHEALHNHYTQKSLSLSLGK
light: DIQMTQTTSSLSASLGQRVTISCRASQDISNHLNWYQQKPNGTVRLLISSTSRLHSGVPSRFSGSGSGTDYSLTISNLEQEDIATYFCQQGNTLPWTFGGGTKLEIKRTVAAPSVFIFPPSDEQLKSGTASVVCLLNNFYPREAKVQWKVDNALQSGNSQESVTEQDSKDSTYSLSSTLTLSKADYEKHKVYACEVTHQGLSSPVTKSFNRGEC
notes: also called Chimeric IgG4; IgG4 chimeric antibody
binding result [5]: binds

The remaining lines, values ahead:

binding result [2]: binds
binding result [3]: binds
binding result [4]: no binding (tested: 1.0 µg/mL)
B6: anti-CD40 mouse monoclonal antibody 5C2 (antibody, V domains shown)
VH: QVQMLQSGTELVRPGTSVKVSCKASGYGFTNYLIEWVKQRPGQGLEWIGVINPGYGGVNYNEKFKGKAILTADKSSSTAYMHLTSLTSDDSAVYFCARGGSGFAFWGQGTLVTVST
VL: DIQMTQTTSSLSASLGQRVTISCRASQDISNHLNWYQQKPNGTVRLLISSTSRLHSGVPSRFSGSGSGTDYSLTISNLEQEDIATYFCQQGNTLPWTFGGGTKLEIK
notes: also called 5C2 antibody (mouse antibody); antibody of hybridoma KCLRF-BP-00381

binding result [1]: binds
B8: humanized 5C2 antibody VH2VL2 (a combination of heavy chain VH2 and light chain VL2) (antibody, human IgG2, V domains shown)
VH: B2 VH with A68V
VL: B3 VL
notes: as for B1

binding result [5]: binds
B10: anti-CD40 5C2 chimeric antibody comprising human IgG1 constant region (antibody)
heavy: not shown
light: B11 light
notes: expressed in ExpiCHO and purified on Protein A; also called Chimeric IgG1; IgG1 chimeric antibody

binding result [5]: binds
B12: anti-CD40 5C2 chimeric antibody comprising human IgG2 constant region (antibody)
heavy: QVQMLQSGTELVRPGTSVKVSCKASGYGFTNYLIEWVKQRPGQGLEWIGVINPGYGGVNYNEKFKGKAILTADKSSSTAYMHLTSLTSDDSAVYFCARGGSGFAFWGQGTLVTVSTASTKGPSVFPLAPCSRSTSESTAALGCLVKDYFPEPVTVSWNSGALTSGVHTFPAVLQSSGLYSLSSVVTVPSSNFGTQTYTCNVDHKPSNTKVDKTVERKCCVECPPCPAPPVAGPSVFLFPPKPKDTLMISRTPEVTCVVVDVSHEDPEVQFNWYVDGVEVHNAKTKPREEQFNSTFRVVSVLTVVHQDWLNGKEYKCKVSNKGLPAPIEKTISKTKGQPREPQVYTLPPSREEMTKNQVSLTCLVKGFYPSDIAVEWESNGQPENNYKTTPPMLDSDGSFFLYSKLTVDKSRWQQGNVFSCSVMHEALHNHYTQKSLSLSPGK
light: B11 light
notes: also called Chimeric IgG2; IgG2 chimeric antibody
